# Experiment: yeast display, Sf9 membrane polyspecificity reagent, FACS + sequencing; frameworks hold sequencing errors
# Summary of the method: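 Synthetic nanobody libraries on Saccharomyces cerevisiae BJ5465 were galactose-induced for 36–48 hours, stained 1 hour at 4 °C with 10% biotinylated, detergent-solubilized Sf9 membrane reagent and enriched on streptavidin microbeads. FACS then separated cells into low and high (top ~1%) gates by anti-HA (expression) and streptavidin (reagent binding) fluorescence. Genes were colony-PCR amplified, MiSeq 2 × 250 sequenced and CDR-length filtered. A clone's polyreactivity label is that of its gate of origin.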
row,Sequence,polyreactivity (PSR sort gate)
1,QVQIVESGGGLVQAGGSLRLSCDASGFTFFKYAMGWYRHAPGKERELVATISIDCITNYADSVKGRFTISRDNAKNTVYLQMNSLKPEDTAVYYCNARSLYQQLGYWGQGTQVTVSS,low polyreactivity
2,QVQLVESGGGLVQAGGSLRLSCAASGRTFKSYSMGWYRPAPGKERELVAAISWSGGSTYYADSVKGRFTISRDNAKNTVYLQMNSLKPEDTAVYYCAKRGYASGSKWDYGYWGQGTQVTVSS,high polyreactivity
3,QVQLVESGGGLVQAGGSLRLSCAASGLTFNKNAMGWYRQAPGKEREFVAAISRRGGSTRYADSVKGRFTISRDNAKNTVYLQMHSLKPEDTAVYYCAKTAVDYYYSYDYWGQGTQVTVSS,high polyreactivity
4,QVQLVESGGGLVQAGGSLRLSCAASGLIFRVYTMGWYRQAPGKERELVSAITGRGGRTYYADSVKGRFTISRDNAKNTVYLQMNSLKPEDTAVYYCATGGRYQQAAYTGYNYWGQGTQVTVSS,high polyreactivity
5,QVHLVESGGGLVNAGGSLRLSCAASGRIFSGYAMGWYRQAPGKERELVAAITSVGSTNNADSVKGRFTISRDNAKNTVYLQMNSLKPEDTAVYYCAARGSYARGYDYWGQGTQVTVSS,high polyreactivity
6,QVQLVESGGGLVQAGGSLRLRCAASGRILWWYAMGWYRQAPGKERELVATITYSGGSTYADSVKGRFTISRDNAKNTVYLQMNSLKPEDTAVYYCAARLPLYYGKSDYWGQGTQVTVSS,high polyreactivity
7,QVQLVESGGGLVQAGGSLRLSCAASGLTFKQYALGWYRQAPGKERELVAAITVSGGDTYYADSVKGRFTISRDNAKNSVYLQMNSLKPVDTAVYYCAADHFFWGYDYWGQGTQVTVSS,high polyreactivity
8,QVQLVESGGGLVQAGGSLRLSCAASGRTFRQYAMGWYRQAPGKERELVARIRWRGGTTYYADSVKGRFTISRDNAKNTVYLQMISLKPEDTAVYYCAADKYGTEYDYWGQGTQVTVSS,high polyreactivity
9,QGQLVESGGGLVQAGGSLRLSCAASGFTFAPNAMAWYRQAPGKERELVAAISSASSTYYADSLKGRFTISRDNAKNTVYLQMNSLKPEDTAVYYCAAREGWGFYYWGQGTQVTVSS,high polyreactivity
10,QVQLVESGGGLVQAGGSLRLSCAASGRIFGGYVMGWYRQAPGKERELVAAISKRGDSTYYADSVKGRFTISRDNAKHTVYLQMNSLKPEDTAVYYCAAVRRGDRGTDMDYWGQGTQVTVSS,high polyreactivity
11,QVQVVESGGGLVQAGGCLRLSCAASGVIFVGYAMGWYRQAPGKERELVAAISWSGGSTYYADSVKGRFTISRDKAKNTVYLQMNSLKPEDTAVYYCAAYLYGYEYWGQGTQVTVSS,high polyreactivity
12,QVQLVESGGGLVQAGGSLRLSCAASGRIFLYYTMGWYRQAPGKERELVAAITRSGGSTYYADSVKGRFTISRDNAKNTVYLQMISLKPEDTAVYYGADRYWERYRAFNYWGQGTQVTVSS,high polyreactivity
13,QVQLVESGGGLVQAGGSLRLSCAASGSTFRYNAMGWYRQAPGKERELVAAITGSGDRTFYADSVKGRFTISRDNAKNTVYLQMNSLKPEDTAVYYCAARSRYPFSYGYYYWGQGTQVTVSS,high polyreactivity
14,QVQHVESGGGLVQAGGSLRLSCAASGGTFLANAMGWYRQAPGKERELVAAISWRGGSTRYADSVKGRFTISRDNAKNTVYLQMNSLKPEDTAVYYCAARYLYFTGFYYWGQGTQVTVSS,high polyreactivity
15,QVQLVESGGGLVQAGGSLRLSCAASGSIFTVYAMGWYRQAPGKERELVATITTGGSTNYADSVKGRFTISRDNAKTTVYLQMNSLKPEDTAVYYCAATYWSWISLRFYWGQGTQVTVSS,low polyreactivity
16,QVQLVESGGGLVQAGGSLRLSCAASGSIYARNAMGWYRQAPGKERELVAAIRYSGGSTYYADSVKGRFTISRDNAKNTVYLQMNSLKPEDTAVYYCAARWGVFGYYYWGQVTQVTVSS,high polyreactivity
17,QVQLVESGGGLVQAGGSLRLSCAASGRTFWTYAMGWYRQAPGKERELVASISKSGGSTYADSVKGRFTISRDNAKNTVYLQMNSLKPEDTAVYVCAAYPYFSKGWGWYPYDYWGQGTQVTVSS,low polyreactivity
18,QVQLVESGGGLVQAGGSLRLSCAASGRTFWNYAMGWYRQAPGKERELVAVIRFSDGSTYYADSVKGRFTISRDNAKNTVYLQMKSLKPEDTAVYYCGAKGQRRWGSGFDYWGQGTQVTVSS,low polyreactivity
19,QVQLVESGGGLVQAGGSLRLSCAASGSIFRTYAMGWYRQSPGKERELVAAITSDGSTYYADSVKGRFTISRDNAKNTVYLKMNRLKPEDTAVYYFAAASQEYDYHYYYWGQGTQVTVSS,low polyreactivity
20,QVQLVESGGGLVQAGGRLRLSCAASGRTFTPNAMGWYRQAPGKERELVAAIDWRGGRTYYADSVKGRFTISRDNAKNTVYLQMNSLKPEDTAVYYCAARVDGYHYKSAGYSYGVYYWGQGTQVTVSS,low polyreactivity
21,QVQLVESGRGLVQAGGSLRLSCAPSGSNFPPNAMGWYRQAPGKEREFVASITSSGGITNYADSVKGRFTISRDNAKNTVYLQMNSLKPEDTAVYFCAAVQTWRWVYARDYWGQGTQVTVSS,high polyreactivity

row,Sequence,polyreactivity (PSR sort gate)
1,QVQLVESGGGLVQAGGSLRLSCAASGNIFSRNAMGWYRQAPGKERELVASIDNSTSGTYYADSVKGRFTISRDNAKNTVYLQMKSLKPEDTAVYYCAATPLVDGSSIPREGDYWGQGTQVSVSS,low polyreactivity
2,QVQLVESGGGLVQAGGSLRLSCAASGSIFAWYTMGWYRQAPGKERELVATITRGGSTTYADSVKGRFTISRDNAKITVYLQMNSLKPEDTAVYYCAADWRTKGYDSLGQGTQVTVSS,high polyreactivity
3,QVQLVESGGGLVQAGGSLRLSCAASGSILVRYAMGWYRQAPGKERELVAAITYSVGSTYYADSVKGRFTISRDNAKNTVYLQMNSLKPEDTAVYYCAASGGTEVLLMDYWGQGSQVTVSS,low polyreactivity
4,QVQLVESGGGLVQAGGSLRLSCAASGSIFIYYAMGWYRQAPGKERELVAAISSSGGSTYYADSVKGRFTISRDNAKNTVYLQTNSLKPEDTAVYYCATVPYRYYDDDYWGQGTQVTVSS,high polyreactivity
5,QVQLVESGGGLVQAGGSLRLSCAPSGFIFGHNTMGWYRQAPGKECELVARITSSGGRTYYADSVKGRFTISRDNAKNTVYLQMNSLKPLDSAVYYCAAVSPNTAYDYWGQGTQVTVSS,high polyreactivity
6,QVQLVESGGGLVQAVGILRLSCASYGRTFVANAMGWYIQAPGKERELVAGITCGDSTYYADSVKWRFTISRDNAKNTVYLQMNRLKPEDTAVYYCSAPYNFWNFFDLIYVWDGYDYWGQGTQVTVSS,low polyreactivity
7,QVQLVESGGGLVQAGGSLRLSCADSGFTLNAMGWYRHAPGKERELVAAITTGGRTYYADSVKGRFTISRDNAKNTVYLQMNSLKPEDTAVYYCGAHTYYYPVGFNYWGQGTQVTVSS,low polyreactivity
8,QVQLQESGGGLVQEGGSLRLSCAESGNISPQADMGWYRQAPGKERELVASIGTGGTTNYADSVTGRFTISRDNAKNTVYLQMNSLKPDDTAFYYCAAVRYEYNPYDYWGQGTQVTVSS,low polyreactivity
9,QVQLVESGGGLVQAGGRLRLSCAASGRIFYNYAMGWYRQAPGKERELVAAISGSGGSTYYADSVKGRFTISRDNAKNTVYLQMNCLKPDDTAVYYCSTSGPQYYSRNFDYWGQGTQVTVSS,low polyreactivity
10,QVQLVESGGGLVQAGGSLRLSCAASGSICGLYDMRWYRQAPGKERELVASITGGGSTYADSVKGRFTISRDNAKNTVYLQMNSLKPEDTAVYSFAAKPYSFYGYKYDYWGQGTQVTVSS,low polyreactivity
11,QVQLVETGGGLVQAGGSLRLSCAASRSTIADNAMGWYRQAPGKERELVAAITRSGVRTYYADSVKGRFTISRDNAKNTVYLQMNSLKPEDTAVYYCAKRTYPSRIYDYWGQGTQVTVSS,low polyreactivity
12,QVQLVESGGGLVQAGGRLRLSCAASGSIFDSYVMGWYRQAPGKERELVAAITYSGGSTYADSVKGRFTISRDNAKNTVYLEMNSLKPEDTAVYYCAAASYFYLYLLEDYWGQRTQVTVSS,low polyreactivity
13,QVQLVESGGGLVQAGGSLRLSCAASGFTFSKYTMGWYRQAPGKERELVAAITSGGSTYYADSVKGRFTISRDNAKNTVYLQMNSLKPEDTAVYYCNAESRHVFEDEYWGQGTQVTVSS,low polyreactivity
14,QVQLVESGGGLVQAGGSLRLSCAASGRIFWYNTMGWYRQAPGKERELVATITTGGRTNYADSVKGRFTISRDNAKNTVYLQMNSLKPEDTAVYYCNAVRGLWVTWRYYYWGQGTQVTVSS,high polyreactivity
15,QVQLVESGGGLVQAGGSLRLSCAASGSTFYYYAMGWYRQAPGKERELVAAITKSGGSTYYADSVKGRFTISGDNAKNTVYLQMNTLKPEDTAVYYCAAYLRSGYKFDYWGQGTQVTVSS,low polyreactivity
16,QVQLVESGGGLVQAGGSLRLSCASSGSTFAPNAMGWYSQAPGKEREFVAAITYRGSSTYYADSVKGRFTISRDNAKNTVYLQMNSLKPEDTAVYYCAADYVEYKVRSYDYWGQGTQVTVSS,low polyreactivity
17,QVQLVESGGGLVQAGGSLRLSCAASGSTFNQYAMGWYRQAPGKEREFVATITWSGGRTYYADSVKGRFTISRDNAKNTVYLQMISLKPEDTAVYYCAAQPDYRPSYGYGYWGQGTQVTVSS,low polyreactivity
18,QVQLVESGGGLVQAGGSLRLSCAASGSIFFIYAMGWYRQAPGKERELVATITSGGSTYYADSVNGRFTISRDNAKNTVYLQMNSLKPEDTAVYYCAVDEYFAFDYWGQGTQVTVSS,low polyreactivity
19,QVQLVESGGCLVQAGGSLRLSCAASGRTSTGYSMGWYRQAPGKERELVAGIDKIGGRTYYADSVKGRFTISRDNAKNTVYLQMNSLKPEDTAVYYCAVKTSPRRYYWGQGTQVTVSS,high polyreactivity
20,QVQLVESGGCLVQAGGSLRLSCAASGSIFSWYGMSWYRQAPGKERELVAAITWGGGSTYYADSVKGRFTISRDNAKNSVYLQMNSLKPEDTAVYYCEVDYWGQCTQVTVSS,low polyreactivity

# Source: the nanobody polyreactivity screen of Harvey et al. (2022)
